# Where two headings read alike, the source gives them in different places.
# T1: cynomolgus monkey NPR1 on HEK293 cells (Macaca fascicularis)
# T1 chain: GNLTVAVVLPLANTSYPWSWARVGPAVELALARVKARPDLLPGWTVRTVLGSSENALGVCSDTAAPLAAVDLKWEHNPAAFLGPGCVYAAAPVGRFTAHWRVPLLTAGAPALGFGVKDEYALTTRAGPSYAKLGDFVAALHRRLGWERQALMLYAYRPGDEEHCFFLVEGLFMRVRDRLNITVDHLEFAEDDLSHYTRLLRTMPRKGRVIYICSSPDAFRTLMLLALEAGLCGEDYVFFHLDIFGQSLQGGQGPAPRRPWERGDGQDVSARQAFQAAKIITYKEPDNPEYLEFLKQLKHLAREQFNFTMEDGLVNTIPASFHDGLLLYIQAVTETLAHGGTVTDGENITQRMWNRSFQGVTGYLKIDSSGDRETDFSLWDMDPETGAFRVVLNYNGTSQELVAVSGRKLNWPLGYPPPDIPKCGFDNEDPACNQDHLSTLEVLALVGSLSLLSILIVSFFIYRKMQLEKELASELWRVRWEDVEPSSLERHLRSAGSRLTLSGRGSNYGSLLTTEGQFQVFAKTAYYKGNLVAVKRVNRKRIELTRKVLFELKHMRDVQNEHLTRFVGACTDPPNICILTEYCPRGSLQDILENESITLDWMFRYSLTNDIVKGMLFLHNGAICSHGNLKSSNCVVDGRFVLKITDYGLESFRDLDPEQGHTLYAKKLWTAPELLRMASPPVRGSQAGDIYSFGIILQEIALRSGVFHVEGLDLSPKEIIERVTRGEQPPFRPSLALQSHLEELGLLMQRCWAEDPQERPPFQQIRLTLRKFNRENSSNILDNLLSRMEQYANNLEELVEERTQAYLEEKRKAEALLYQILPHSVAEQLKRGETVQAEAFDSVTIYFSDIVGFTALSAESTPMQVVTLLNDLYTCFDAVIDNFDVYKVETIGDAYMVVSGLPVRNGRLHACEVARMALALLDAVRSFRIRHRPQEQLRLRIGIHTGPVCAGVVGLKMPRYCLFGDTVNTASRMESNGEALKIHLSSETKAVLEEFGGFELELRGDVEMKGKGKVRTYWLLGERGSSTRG
# T2: monkey NPR1 extracellular domain with C-terminal MycMycHis (Macaca fascicularis)
# T2 chain: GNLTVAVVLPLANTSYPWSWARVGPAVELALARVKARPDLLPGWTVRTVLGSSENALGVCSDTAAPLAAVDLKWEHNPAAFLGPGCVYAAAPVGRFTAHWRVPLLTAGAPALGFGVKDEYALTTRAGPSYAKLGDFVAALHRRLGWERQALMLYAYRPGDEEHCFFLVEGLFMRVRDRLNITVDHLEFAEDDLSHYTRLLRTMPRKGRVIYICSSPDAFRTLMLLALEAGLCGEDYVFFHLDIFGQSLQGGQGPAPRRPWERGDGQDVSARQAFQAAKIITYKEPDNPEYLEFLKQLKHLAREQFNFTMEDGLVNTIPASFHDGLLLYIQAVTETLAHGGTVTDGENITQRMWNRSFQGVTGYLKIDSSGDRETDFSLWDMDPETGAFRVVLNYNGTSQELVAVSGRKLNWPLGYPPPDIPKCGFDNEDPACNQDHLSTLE
# T3: atrial natriuretic peptide (human, UniProt P01160)
# T3 chain: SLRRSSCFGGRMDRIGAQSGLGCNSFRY
# Assays:
# [1] = target: T4, human NPR1 on HEK293 cells (Homo sapiens, UniProt P16066); experiment: flow cytometry on cells
# [2] = target: T1, cynomolgus monkey NPR1 on HEK293 cells; experiment: flow cytometry on cells
# canine NPR1 = canine NPR1 (Canis lupus familiaris, UniProt A0A8I3MHU3); experiment: cell-based or functional assay
# [3] = target: T4, human NPR1 on HEK293 cells; experiment: flow cytometry on cells; remark: listed apart in the source
# [4] = target: T1, cynomolgus monkey NPR1 on HEK293 cells; experiment: flow cytometry on cells
# [5] = target: NPR3 extracellular domain with C-terminal MycMycHis (Homo sapiens, UniProt P17342); experiment: SPR
# NPR3 extracellular domain with C-terminal MycMycHis, sequence (P17342 27-481): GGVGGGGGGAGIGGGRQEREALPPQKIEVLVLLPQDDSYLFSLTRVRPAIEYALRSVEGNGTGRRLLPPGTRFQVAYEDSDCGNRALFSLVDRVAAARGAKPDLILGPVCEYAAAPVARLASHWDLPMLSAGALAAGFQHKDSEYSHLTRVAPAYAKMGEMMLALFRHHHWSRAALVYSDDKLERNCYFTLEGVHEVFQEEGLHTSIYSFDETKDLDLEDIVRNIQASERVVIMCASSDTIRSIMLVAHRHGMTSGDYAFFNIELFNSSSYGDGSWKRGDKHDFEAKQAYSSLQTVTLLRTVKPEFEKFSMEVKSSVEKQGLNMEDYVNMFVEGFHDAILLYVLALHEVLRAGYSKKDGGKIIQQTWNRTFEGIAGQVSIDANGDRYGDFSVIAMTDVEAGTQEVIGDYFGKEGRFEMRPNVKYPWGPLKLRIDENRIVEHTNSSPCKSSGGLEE
# [6] = target: NPR2 extracellular domain with C-terminal MycMycHis (Homo sapiens, UniProt P20594); experiment: SPR
# NPR2 extracellular domain with C-terminal MycMycHis, sequence (P20594 23-458): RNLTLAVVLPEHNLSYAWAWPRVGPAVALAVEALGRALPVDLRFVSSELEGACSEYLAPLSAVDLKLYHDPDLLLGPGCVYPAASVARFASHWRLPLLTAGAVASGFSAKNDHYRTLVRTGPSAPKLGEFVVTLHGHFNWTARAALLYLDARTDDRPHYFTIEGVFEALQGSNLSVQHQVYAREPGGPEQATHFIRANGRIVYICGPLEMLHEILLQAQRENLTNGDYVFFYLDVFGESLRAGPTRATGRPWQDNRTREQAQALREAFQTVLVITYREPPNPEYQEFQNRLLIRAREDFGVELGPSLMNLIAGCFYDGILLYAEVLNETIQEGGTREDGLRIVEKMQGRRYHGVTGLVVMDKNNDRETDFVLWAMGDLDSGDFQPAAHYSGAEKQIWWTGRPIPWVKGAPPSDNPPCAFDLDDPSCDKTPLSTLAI
# mouse NPR1 protein = mouse NPR1 protein (mouse, UniProt P18293); experiment: SPR
# mouse NPR1 protein, sequence (P18293 29-469): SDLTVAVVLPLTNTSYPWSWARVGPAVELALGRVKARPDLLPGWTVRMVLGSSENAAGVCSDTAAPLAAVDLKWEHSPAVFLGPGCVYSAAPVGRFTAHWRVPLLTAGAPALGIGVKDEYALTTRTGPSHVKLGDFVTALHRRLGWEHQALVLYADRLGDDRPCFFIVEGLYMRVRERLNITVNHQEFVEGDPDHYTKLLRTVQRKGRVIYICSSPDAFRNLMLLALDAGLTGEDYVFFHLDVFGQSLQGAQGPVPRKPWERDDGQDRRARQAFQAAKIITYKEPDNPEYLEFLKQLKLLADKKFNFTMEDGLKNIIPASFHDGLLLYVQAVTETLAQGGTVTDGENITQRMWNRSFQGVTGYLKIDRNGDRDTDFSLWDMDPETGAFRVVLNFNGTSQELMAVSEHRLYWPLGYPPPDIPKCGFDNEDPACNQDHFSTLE
# [7] = target: T2, monkey NPR1 extracellular domain with …; experiment: SPR
# [8] = target: T3, atrial natriuretic peptide; experiment: SPR
# [9] = target: T4, human NPR1 on HEK293 cells; experiment: flow cytometry on cells; remark: listed apart in the source
# [10] = target: T1, cynomolgus monkey NPR1 on HEK293 cells; experiment: flow cytometry on cells
binder,measurement,setting,value
"REGN5381 (antibody, V domains shown) VH: QVQLVQSGAEVKKPGASVTVSCKASGYTFTDYYMHWVRQAPGQGLEWMGWIKPNSGGTNSAQRFQGRITMTWDTSISTAYMELSRLRSDDTAVYYCSRGGPVMNYYYYYGMDVWGQGTTVTVSS VL: NIQMTQSPSSLSASVGDRVTITCRASQSIDSYLNWYQQKPGKAPKLLIYVASSLQSGVPSRFSGSGSGKDFTLTISSLQPEDFATYYCQQSYSIPTFGQGTRLEIK",EC50,[1],4.56 nM
same,EC50,[2],2.42 nM
same,activation of canine NPR1 (Supplementary Fig. 1); EC50,canine NPR1,> 100 nM
same,EC50,[3],4.58 nM
same,EC50,[4],2.27 nM
same,binding result,[5],no binding
same,binding result,[6],no binding
same,binding result,mouse NPR1 protein,no binding
same,binding result,[7],binds
same,binding result,[8],no binding
same,EC50,[9],5.69 nM
same,EC50,[10],3.01 nM

# From publication PMC11410649 (Nature, 2024)
